{
  "source": "patent US9175282B2",
  "about": "“Cellobiose 2-epimerase, its preparation and uses” (HAYASHIBARA CO., LTD., priority 2009, dated 2015)",
  "key": {"[1]": {"experiment": "Optimum temperature and optimum pH of epimerase activity", "assay_type": "biochemical", "description": "Through the specification of the present invention, the activity of the cellobiose 2-epimerase was determined as a lactose 2-epimerase activity, which catalyzes epimerization of lactose to form epilactose, using lactose as the substrate obtainable in highly purified form at low cost. The lactose 2-epimerase activity was measured as follows. To 1,000 μl of substrate solution, which contains lactose to give a final concentration of 35.1 mM and acetate buffer (pH 6.0) to give a final concentration of 20 mM of the reaction solution, 200 μl of a enzyme solution was added to give a 1,200 μl of the reaction solution, followed by reaction at 50° C. for 20 minutes. The reaction was stopped by heating for 10 minutes in a boiling water bath. Then reaction mixture was subjected to HPLC chromatography to determine the amount of epilactose produced by the reaction. The HPLC chromatography was conducted at the following conditions;\nUsing the purified cellobiose 2-epimerase preparation obtained by the method of Experiment 2, effects of temperature and pH on the epimerase activity were investigated according to the method of assaying the activity. The results were in FIG. 3 (optimum temperature) and FIG. 4 (optimum pH). The optimum temperature of the enzyme is 80° C. when reacted at pH 6.0 for 20 minutes. The optimum pH of the enzyme is 7.8 when reacted at 50° C. for 20 minutes."}, "[2]": {"experiment": "Thermostability and pH stability (residual activity)", "conditions": "incubated at pH 6.0 for 60 minutes", "protocol": "The thermostability was determined as the residual activity of the enzyme, after incubated at given temperatures for 60 minutes in 10 mM acetate buffer (pH 6.0) followed by being cooled in cold water."}},
  "data": [
    {"molecule": "recombinant epimerase: cellobiose 2-epimerase expressed in E. coli transformant ETCS1 and purified by heat treatment and chromatography (protein, listed as Caldicellulosiruptor saccharolyticus) MDITRFKEDLKAHLEEKIIPFWQSLKDDEFGGYYGYMDFNLNIDRKAQKGCILNSRILWFFSACYNVLKSEKCKEMAFHAFEFLKNKFWDKEYEGLFWSVSHKGVPVDVTKHVYVQAFGIYGLSEYYEASGDEEALHMAKRLFEILETKCKRENGYTEQFERNWQEKENRFLSENGVIASKTMNTHLHVLESYTNLYRLLKLDDVYEALEWIVRLFVDKIYKKGTGHFKVFCDDNWNELIKAVSYGHDIEASWLLDQAAKYLKDEKLKEEVEKLALEVAQITLKEAFDGQSLINEMIEDRIDRSKIWWVEAETVVGFFNAYQKTKEEKYLDAAIKTWEFIKEHLVDRRKNSEWLWKVNEDLEAVNMPIVEQWKCPYHNGRMCLEIIKRVD", "values": [
      {"measurement": "Optimum pH", "setting": "[1]; reacted at 50° C. for 20 minutes", "value": "about 7.8"},
      {"measurement": "Optimum temperature", "setting": "[1]; reacted at pH 6.0 for 20 minutes", "value": "about 80 °C"},
      {"measurement": "Thermostability (stable up to)", "setting": "[2]", "value": "up to 70 °C"}
    ]}
  ]
}
